Data on seven sequences can be found in the DeepSol protein solubility set.

A short description of the data set: soluble on expression in E. coli; label from the status in PepcDB or PDB records.
“MGSDKIHHHHHHMFERDNREDEAAELVTLAAKLKALMKPDVARRVEPDLEALLEAEGLAMRPGPRPMIDTDLVQELRQAMITCSKVKLRYRNRRTRQANERIVHPYAFLHGHRNYLIAWHEHPKANKVALFALPHIEAVDATGEPFVRDPGFQLQDFAARSFGLFQDEPFQTAWKFAPDAADDAAEFLFHPSQAQERLPDGSLIVRFVAASELEMAWHLYAWGDKVEVLEPQKLAEMVNPGRVAWPALP”: the “soluble on expression in E. coli” value is on record as “not soluble”. Take “MSMDIVMKSDEQPFISAPVCFKTFAFFAKASAEECKLLASGSNARESFQQATGLSEKITEDIYRQIDVSHISSMVFNREMDGGIERNRLGSQAILLDENSRRRNPQFKSIALRSLRYDHIDHRALARKSPHLMPPTYIKEEIMDDELDEVKEEEVSVGEAALPTAKVELNMDHPEKDLIISTSVYLGYTRTLQYHEIRLGRLMKVTDRLELTGDHTLRDLKNAFSCPIDFSFSDDFSEKKPSFKDMAKNKWPSSMFFIHDTFYIDSNTGDQFVDPSITIRTWAKKFDYIGPMHVKQMSETRIGDLICRLGQPYVYIHQGVCEHLIVFNDLCLRDESHTNVEFPRRLVERNFRRIACDTCKEASAHWMIVDHDNLLPNSPGYLCSSCYKEFCFDVNGNKVCQFKAVPYCDRKDIGDGRQFFTELDL”: the “soluble on expression in E. coli” value is recorded as “not soluble”. As for “MIQAAKIKQLKSLDSDLEKAIGRISGGLYIITAQKGEVKGAMLASWVSQASFNPPGFTVAVAKDRAIESLMQVGDRFVLNILEEGNYQILMKHFLKRFPPGADRFAGVKTQTASNGSPILTDALAYLECEVASRMECSDHWIVYSQVTNGRVAKAEGLTAVHHRKVGNYYLEHHHHHH”, the entry is “soluble”; as for “GSMAEGRGSRERPDVETQKTELGALMGTTLQRGAQWYLIDSRWFKQWKKYVGFDSWDMYNVGEHNLFPGPIDNSGLFSDPESQTLKEHLIDELDYVLVPAEAWNKLLNWYGCVEGQQPIVRKVVEHGLFVKHCKVEVYLLELKLCENSDPTNVLSCHFSKADTIATIEKEMRKLFNIPAERETRLWNKYMSNTYEQLSKLDNTIQDAGLYQGQVLVIEPQNEDGTWPRQSL”, “soluble”. For “MKNIVIVGGGVAGTITANYLAMKLREEIREKNVSITLISDREKQLYEPGLLYLIFNRMEESEILKDVKYLLDPLIELKIARATKIDAEKSRVELENGEVVNYDYLVIATGSRVAPEEMPGLVDGGHWFYNLDGAKRLREELARFKKGKVVVSVMGIPHKCPVAPIEVTFMLHEFFKIHGVRKDVELLYTYPINRVFTMEEVSDLVQKMFDERGINYKTFFNPVSIDPEKKVIETLEGEEEPYDLLIAIPPHKGSQVIIDSGLGDRDGWVPTDRYTLKAEGLENVYVVGDATNLPVSKAGSVAHFEAEVVAENIAAEIKGLPPTARYFGKAMCFIETGFSEATYIWFDYETPPKFVKPNKFIHWMKLAYNRMYWLTARGMLLEHHHHHH”, the “soluble on expression in E. coli” value is listed as “soluble”. For the sequence “MGSDKIHHHHHHVAKPKTVYICSECGGQSPKWAGQCPSCNAWNTLVESVAEAPSTHRFQSLAKSAPVRRLADIEASDVPRFTTGVSEFDRVLGGGLVPGGVVLIGGDPGIGKSTLLLQSLAEIAADKRALYISGEESAAQIALRAQRLSLLEPGSRASELQLLAEIQLEKIQATIAEQRPDVAVIDSIQTVYSDALTSAPGSVAQVRECAAQLTRIAKQSGTTIIMVGHVTKEGALAGPRVLEHIVDTVLYFEGDTHSSYRLVRAIKNRFGAVNELGVFAMTERGLRGVANPSALFLSQHEQSVAGSCVLVTQEGTRPLLVEVQALVDAANAPNPRRLAVGLEQNRLAMLLAVLHRHAGIACFDQDVFLNAVGGVKITEPAADLAVLLAIHSSMRNKPLPKGLVVFGEVGLAGEIRPSPRGQERLKEAAKLGFSVAVIPRANAPKQPIEGLQVVAVERIEQAIDRVRTLE”, the “soluble on expression in E. coli” value was “not soluble”. Take “MSHLDNGFRSLTLQRFPATDDVNPLQAWEAADEYLLQQLDDTEIRGPVLILNDAFGALSCALAEHKPYSIGDSYISELATRENLRLNGIDESSVKFLDSTADYPQQPGVVLIKVPKTLALLEQQLRALRKVVTPDTRIIAGAKARDIHTSTLELFEKVLGPTTTTLAWKKARLINCTFNEPPLADAPQTVSWKLEGTDWTIHNHANVFSRTGLDIGARFFMQHLPENLEGEIVDLGCGNGVIGLTLLDKNPQAKVVFVDESPMAVASSRLNVETNMPEALDRCEFMINNALSGVEPFRFNAVLCNPPFHQQHALTDNVAWEMFHHARRCLKINGELYIVANRHLDYFHKLKKIFGNCTTIATNNKFVVLKAVKLGRRR”: the “soluble on expression in E. coli” value is given as “soluble”.
